This is an account of results in patent publication US20090208960A1, “METHODS FOR IDENTIFYNG CELLULAR MODULATORS OF DISAGGREGATION ACTIVITY OR AGGREGATION ACTIVITY IN AN ANIMAL” (priority 2006, published 2009).

For data set [1], the system named is proteasome activity of worm PDS. Description: Proteasome activity of worm PDS with substrate Z-GGL-AMC. In kind it is biochemical, Caenorhabditis elegans. The note with it: 10 μM; wild-type worm (N2) PDS 0.5 μg/μl. The method, then:
The synthetic proteasome substrate Z-GGL-AMC was used according to the manufacturer's (Calbiochem) instructions to follow proteasome activity of wild-type worms (strain N2) PDS (0.5 μg/μl).

Method for PC12 cells: Viability of rat adrenal pheochromocytoma (PC12) cells were discerned by the MTT assay (Bucciantini et al., Nature 416: 507, 2002), and normalized to cell survival when incubated in the absence of Aβ1-40.
Using the disaggregation assay and conditions as in B, and 72 h incubation, Aβ1-40 disaggregation samples (500 nM) were added to PC12 cell culture medium for 3 days. Cell viability was assayed by MTT metabolic activity.

In the case of “Monomeric Aβ1-40 peptide: Aβ1-40 peptide purchased from Synpep”, in the data set on PC12 cells, the “toxicity on PC12 cells” value is recorded as “did not exhibit toxicity”.
As to `CC[C@H](C)[C@H](NC(=O)[C@H]([C@@H](C)CC)N(C)C(C)=O)C(=O)N[C@H](C(=O)N[C@@H](CC(C)C)C(=O)[C@@]1(C)CO1)[C@@H](C)O` [Epoxomicin], the “proteasome activity of worm PDS” value in data set [1] is “effectively inhibits proteasome activity”.
